Measured values from US12692533B2, “Methods and compositions for noninvasive detection of organ transplant rejection” (Georgia Tech Research Corporation, priority 2016, dated 2026).
Square brackets hold non-standard residues; d marks the D form. Ends that are not written are not given here.

What was measured:
murine Granzyme B = molecular target: T1, murine Granzyme B (Mus musculus, UniProt P04187); experiment: In vitro protease cleavage assay with recombinant GzmB; type: biochemical; conditions: substrate conjugated to IONPs, library of 13 candidate substrates
T1 construct: purchased Peprotech
T1 sequence (P04187 21-247): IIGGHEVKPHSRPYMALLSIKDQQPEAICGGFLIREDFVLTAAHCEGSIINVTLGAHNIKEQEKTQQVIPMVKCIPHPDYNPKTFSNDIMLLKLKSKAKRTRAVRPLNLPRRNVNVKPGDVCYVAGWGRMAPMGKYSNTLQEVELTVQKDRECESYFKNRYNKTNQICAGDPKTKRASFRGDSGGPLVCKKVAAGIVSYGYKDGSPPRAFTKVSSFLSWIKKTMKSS
Protocol: (§1) Synthetic biomarkers (6 nM by NP, 300 nM by peptide) were incubated in PBS+1% bovine serum albumin (BSA; Sigma) at 37° C. with murine Granzyme B (0.2 μM, Peprotech), human thrombin (HaemTech), mouse thrombin (HaemTech), mouse plasmin (HaemTech), Clr (Sigma), Cls (Sigma), Factor D (Sigma), Factor I (Sigma), MASP2 (Biomatik). Sample fluorescence were measured for 60 minutes using Cytation 5 plate reader (Biotek). To optimize GzmB substrate, a library of potential substrates was synthesized by Tufts University Core Facility peptide synthesis service and conjugated to IONPs. Cleavage assays of nanoparticles decorated with these substrates with recombinant GzmB were performed, and data was fitted to compare initial cleavage velocities. To determine Michaelis-Menten constants, cleavage assays with GzmB were performed at different substrate concentrations. To initiate coagulation cascade, citrated plasma was mixed with synthetic biomarkers before addition of calcium chloride (15 mM, Sigma). To initiate complement activation, Control Human Serum (Sigma) was mixed with synthetic biomarkers before addition of Heat Aggregated Gamma Globulin (HAGG; Quidel) per the manufacturer's protocol. After measuring fluorescence for 1 hour, supernatants were collected and measured for formation of MAC complex using Micro Vue CH50 Eq EIA Kit (Quidel).

[1] = system: proteases in the coagulation and complement cascades; experiment: Specificity: cleavage by key recombinant proteases and activated coagulation and complement cascades; type: biochemical; conditions: recombinant proteases; plasma + Ca2+; serum + HAGG; fluorescence
Protocol: as §1

[2] = system: membrane attack complex (MAC); type: biochemical, Human
Protocol: as §1

[3] = system: T cells from skin graft mice with BALB/c donor splenocytes; experiment: NP assay sensing alloreactive T cell killing (coculture supernatants); type: cell-based, mouse; conditions: cocultures containing T cells from mice bearing allografts
Protocol: (§3) To sense transgenic T cell killing, CD8+OT1 T cells were isolated and activated per above protocol. On day 5 post activation, 1x10^6 OT1 T cells were coincubated with 1x10^6 EL4 or EG7-OVA target cells for 2 hours at 37° C. Coculture supernatants were mixed with synthetic biomarkers (2 nM by NP, 100 nM by peptides) and fluorescence were monitored for 1 hour at 37° C. To sense alloreactive T cell killing, on day 7 post-transplant, CD8 T cells were isolated from splenocytes and lymphocytes of skin graft mice. 5×10^5 CD8 T cells from skin graft mice were restimulated with 5×10^5 splenocytes from BALB/c Mice (Charles River) for 6 hours at 37° C. Coculture supernatants were mixed with synthetic biomarkers (2 nM by NP, 100 nM by peptides) and fluorescence were monitored for 2 hours at 37° C.

GzmB [4] = molecular target: T2, GzmB (Mus musculus, UniProt P04187); experiment: Tracking in vivo GzmB cleavage by near infra-red imaging in skin graft mice
T2 construct: cleaved by GzmB secreted by alloreactive T cells; endogenous in cells; host or cells: alloreactive CD8 T cells of C57BL/6 recipient mice bearing BALB/c skin grafts
T2 sequence (P04187 21-247): T1 sequence (P04187 21-247)
Protocol: (§2) To track cleaved fragments after in vivo GzmB cleavage, on day 7 post-transplant, VT750-labelled synthetic biomarkers (10 nmol by peptides) were administered to skin graft mice. Major organs were excised and imaged with Odyssey CLx Imaging System (LI-COR) while mouse bladders were imaged with IVIS Spectrum CT Imaging System (PerkinElmer) after 90 minutes. All urinalysis experiments were done in paired setup. 4 days before and 7 days after surgeries, skin graft mice were administered with FITC-labelled Synthetic biomarkers (10 nmol by peptides). Urine were collected after 90 minutes by placing mice over 96-well plates. FITC in urine was purified by a magnetic separation assay using Dynabeads (Thermo, 65501) coated with anti-FITC (GeneTex, GTX10257). Fluorescent signals were measured with Cytation 5 Plate Reader (Biotek). Concentrations of FITC were calculated using a free FITC ladder and normalized with urine volume. For CD8 depletion study, mice were given anti-mouse CD8 (clone: 53-6.7, BioXCell) for 3 consecutive days following with booster shots every 3 days after. Flow cytometry analysis of splenocytes and lymphocytes were performed with anti-mouse CD3 (clone: 17A2, Biolegend), anti-mouse CD4 (clone: RM4-5, Biolegend), anti-mouse CD8 (clone: KT15, Serotec) to confirm success of depletion.

GzmB [5] = molecular target: T2, GzmB; experiment: Urinary prediction of acute cellular rejection in skin graft mouse model; type: in vivo, mice
Protocol: as §2

[6] = in plasma, DLS
Source text: DLS measurements of synthetic biomarkers were done in PBS or mouse plasma at RT using Zetasizer Nano ZS (Malvern).

[7] = system: OT1 T cells killing EG7-OVA target cells
Protocol: as §3

[8] = in vivo

Substance	rate of cleavage by recombinant GzmB (murine Granzyme B)	rate of cleavage by recombinant GzmB (murine Granzyme B; listed as AIEFD|SGc)	activation by proteases in the coagulation and complement cascades [1]	formation of membrane attack complex (MAC) [2]	activation kinetics [3]	full body imaging bladder fluorescent signals (GzmB [4]; allograft vs isograft mice)	GzmB activity (fluorescent signal) in kidney, allograft mice with respect to isograft mice (GzmB [4]; day 7 post-transplant)	ROC area under the curve (AUC) (GzmB [5]; accepting isografts vs rejecting allografts)	post-graft urine signals compared to pre-graft signals (GzmB [5]; allograft mice, day 7 vs day -4)	post-graft urine signals with respect to pre-graft signals (GzmB [5]; naïve mice, isograft mice, allograft mice depleted of CD8 T cells)	Z-average [6]	sensing of cytotoxic signal (fluorescence) [7]	correlation of initial velocity of probe activation with secretory GzmB ([7]; coculture supernatant)	tolerability [8]
AIEFDSGc (AIEFDSG[dC])	high rate of cleavage	highest rate of cleavage	–	–	–	–	–	–	–	–	–	–	–	–
synthetic biomarkers: PEG-coated iron oxide nanoparticles conjugated with GzmB peptide substrates carrying a fluorescent reporter (AIEFDSG[dC]; not fully specified; printed as AIEFDSGc; also: conjugated to PEG-coated iron oxide nanoparticle via Cys thiol and SIA, FITC reporter, position not given here)	–	–	not activated	not detected	Increased activation kinetics	only detected fluorescent signals from the bladders of allograft mice	3 fold	0.969	more than 2 fold	did not detect significant elevation	47 nm	amplified cytotoxic signal	strongly correlated	well tolerated
